Test results taken from patent US20200171163A1 (Daiichi Sankyo, published 2020).

T1: rat CDH6 (on cells) (rat, UniProt P55280 54-789)
T1 construct: also called rCDH6
T1 sequence: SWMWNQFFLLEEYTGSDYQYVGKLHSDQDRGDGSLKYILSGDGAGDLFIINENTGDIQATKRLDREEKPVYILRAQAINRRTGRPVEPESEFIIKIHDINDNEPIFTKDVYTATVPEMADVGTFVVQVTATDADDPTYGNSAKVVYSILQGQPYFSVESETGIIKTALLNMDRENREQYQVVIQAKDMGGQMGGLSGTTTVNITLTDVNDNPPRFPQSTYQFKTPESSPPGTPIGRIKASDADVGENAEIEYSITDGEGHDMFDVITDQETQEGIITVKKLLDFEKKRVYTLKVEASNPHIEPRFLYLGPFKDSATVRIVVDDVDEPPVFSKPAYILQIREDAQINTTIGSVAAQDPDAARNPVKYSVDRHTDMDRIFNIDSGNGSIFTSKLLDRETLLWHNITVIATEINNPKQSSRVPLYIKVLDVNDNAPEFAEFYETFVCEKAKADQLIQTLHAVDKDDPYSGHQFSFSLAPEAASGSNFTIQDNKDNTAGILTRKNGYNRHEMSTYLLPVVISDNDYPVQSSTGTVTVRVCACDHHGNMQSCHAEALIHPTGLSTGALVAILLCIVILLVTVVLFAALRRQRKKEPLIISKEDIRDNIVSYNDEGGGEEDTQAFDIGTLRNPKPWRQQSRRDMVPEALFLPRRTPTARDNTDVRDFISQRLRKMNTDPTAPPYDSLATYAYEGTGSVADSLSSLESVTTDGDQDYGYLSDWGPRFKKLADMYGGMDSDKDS

T2: EC3 deletion mutant of human CDH6 (human, UniProt P55285 54-790)
T2 construct: In p3×FLAG-CMV-9; also called EC3-deleted hCDH6
T2 sequence: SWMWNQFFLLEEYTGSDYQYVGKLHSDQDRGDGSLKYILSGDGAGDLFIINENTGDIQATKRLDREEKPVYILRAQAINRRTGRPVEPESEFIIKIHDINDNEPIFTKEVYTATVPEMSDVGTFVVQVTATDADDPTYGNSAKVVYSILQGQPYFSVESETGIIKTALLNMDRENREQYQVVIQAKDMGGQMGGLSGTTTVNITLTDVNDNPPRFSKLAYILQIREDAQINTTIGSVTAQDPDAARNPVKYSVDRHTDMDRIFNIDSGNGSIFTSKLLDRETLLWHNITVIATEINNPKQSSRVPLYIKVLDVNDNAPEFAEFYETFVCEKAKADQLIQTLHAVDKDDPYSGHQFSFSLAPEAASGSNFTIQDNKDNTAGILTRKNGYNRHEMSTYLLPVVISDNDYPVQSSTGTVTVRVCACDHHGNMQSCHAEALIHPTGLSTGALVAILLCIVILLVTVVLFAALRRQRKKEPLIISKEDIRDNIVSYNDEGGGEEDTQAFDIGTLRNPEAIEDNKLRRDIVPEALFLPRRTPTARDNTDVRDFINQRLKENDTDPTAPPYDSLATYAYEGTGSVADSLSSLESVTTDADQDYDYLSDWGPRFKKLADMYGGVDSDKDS


Legend:
rat CDH6 (on cells) = target: T1, rat CDH6 (on cells); assay: flow cytometry, MFI vs antibody concentration; 293α cells transiently transfected with rCDH6; PE anti-human IgG Fc
Experimental: The cells were cultured overnight under conditions of 37° C. and 5% CO₂, and thereafter, a cell suspension was prepared. […] Thereafter, the cells were suspended by the addition of each of the 4 humanized hG019 antibodies (clone Nos: H01L02, H02L02, H02L03 and H04L02), which had been prepared in Example 5)-5-3, or human IgG1 control (Calbiochem). The cells were left standing at 4° C. for 1 hour. The cells were washed twice with PBS supplemented with 5% FBS, and then suspended by the addition of anti-human IgG, Fc(gamma) PE goat F(ab′) (Jackson ImmunoResearch Laboratories, Inc.) that had been 500-fold diluted with PBS supplemented with 5% FBS. The cells were left standing at 4° C. for 1 hour. The cells were washed twice with PBS supplemented with 5% FBS, followed by detection using a flow cytometer (Canto II; BD Biosciences). The data was analyzed using FlowJo (Tree Star, Inc.). In FIGS. 6-1 and 6-2, the abscissa depicts antibody concentration, and the ordinate depicts the amount of the antibody bound based on mean fluorescence intensity. As shown in FIGS. 6-1 and 6-2, the human IgG1 control as a negative control binds to none of the CDH6-transfected cells. The 4 humanized hG019 antibodies (clone Nos: H01L02, H02L02, H02L03 and H04L02) bind to human CDH6 and cynomolgus monkey CDH6, but bind to neither mouse nor rat CDH6. None of the antibodies bind to the cells transfected with the empty vector pcDNA3.1 as a negative control.

[1] = target: T2, EC3 deletion mutant of human CDH6; assay: flow cytometry; 293α cells transfected with EC3-deleted hCDH6 (open) vs untransfected control cells (shaded); APC anti-human IgG
Experimental: The cells were cultured overnight under conditions of 37° C. and 5% CO₂, and thereafter, a cell suspension was prepared. […] Thereafter, the cells were suspended by the addition of each of the 4 humanized hG019 antibodies (clone Nos: H01L02, H02L02, H02L03 and H04L02), which had been prepared in Example 5)-5-3, or the anti-CDH6 antibody NOV0712, which had been prepared in Reference Example 1, or human IgG1 (Calbiochem) as a negative control. The cells were left standing at 4° C. for 1 hour. The cells were washed twice with PBS supplemented with 5% FBS, and then suspended by the addition of APC-anti-human IgG goat F(ab′)2 (Jackson ImmunoResearch Laboratories, Inc.) that had been 500-fold diluted with PBS supplemented with 5% FBS. The cells were left standing at 4° C. for 1 hour. The cells were washed twice with PBS supplemented with 5% FBS, followed by detection using a flow cytometer (Canto II; BD Biosciences). The data was analyzed using FlowJo (Tree Star, Inc.). In the histograms of FIGS. 7-1 to 7-6, the abscissa depicts APC fluorescence intensity indicating the amount of the antibody bound, and the ordinate depicts cell count. […] Fluorescence intensity is enhanced when the antibody binds to full-length hCDH6 or each EC domain deletion mutant on cell surface. The human IgG1 control binds to none of the transfected cells.

binding result (rat CDH6 (on cells)) | Binder | binding result [1]
no binding (tested: about 4 nM) | H02L02 antibody (antibody, human IgG1, kappa, V domains shown, Humanized IgG1/kappa (hH02 + hL02); also called humanized hG019 antibody H02L02) VH: EVQLVQSGAEVKKPGASVKVSCKASGYTFTRNFMHWVRQAPGQGLEWMGWIYPGDGETEYNQKFQGRVTITADRSTSTAYMELSSLRSEDTAVYFCARGVYGGFAGGYFDFWGQGTLVTVSS VL: DIQMTQSPSSLSASVGDRVTITCKASQNIYKNLAWYQQKPGKAPKLLIYDANTLQTGVPSRFSGSGSGSDFTLTISSLQPEDFATYFCQQYYSGWAFGQGTKVEIKR | no binding (tested: not given (single concentration))
no binding (tested: about 4 nM) | H02L03 antibody (antibody, human IgG1, kappa, V domains shown, Humanized IgG1/kappa (hH02 + hL03); also called humanized hG019 antibody H02L03) VH: EVQLVQSGAEVKKPGASVKVSCKASGYTFTRNFMHWVRQAPGQGLEWMGWIYPGDGETEYNQKFQGRVTITADRSTSTAYMELSSLRSEDTAVYFCARGVYGGFAGGYFDFWGQGTLVTVSS VL: DIQMTQSPSSLSASVGDRVTITCKASQNIYKNLAWYQQKLGEGPKLLIYDANTLQTGVPSRFSGSGSGTDFTLTISSLQPEDFATYYCQQYYSGWAFGQGTKVEIKR | no binding (tested: not given (single concentration))
no binding (tested: about 4 nM) | H01L02 antibody (antibody, human IgG1, kappa, V domains shown, Humanized IgG1/kappa (hH01 + hL02); also called humanized hG019 antibody H01L02; labeled H01L02) VH: EVQLVQSGAEVKKPGASVKVSCKASGYTFTRNFMHWVRQAPGQGLEWMGWIYPGDGETEYAQKFQGRVTITADTSTSTAYMELSSLRSEDTAVYYCARGVYGGFAGGYFDFWGQGTLVTVSS VL: DIQMTQSPSSLSASVGDRVTITCKASQNIYKNLAWYQQKPGKAPKLLIYDANTLQTGVPSRFSGSGSGSDFTLTISSLQPEDFATYFCQQYYSGWAFGQGTKVEIKR | no binding (tested: not given (single concentration))
no binding (tested: about 4 nM) | H04L02 antibody (antibody, human IgG1, kappa, V domains shown, Humanized IgG1/kappa (hH04 + hL02); also called humanized hG019 antibody H04L02) VH: QVQLVQSGAEVKKPGASVKVSCKASGYTFTRNFMHWIRQAPGQGLEWMGWIYPGDGETEYAQKFQGRVTLTADRSTSTAYMELSSLRSEDTAVYYCARGVYGGFAGGYFDFWGQGTLVTVSS VL: DIQMTQSPSSLSASVGDRVTITCKASQNIYKNLAWYQQKPGKAPKLLIYDANTLQTGVPSRFSGSGSGSDFTLTISSLQPEDFATYFCQQYYSGWAFGQGTKVEIKR | no binding (tested: not given (single concentration))
